Publication doi:10.1101/2023.12.22.572193

Biological target: PfCoronin^R100K/E107V-smHA (P. falciparum (Pikine isolate, SenP019.04))
Experiment: affinity purification with mass spectrometry

PfActin (from UniProt Q8I4X0 1-376) (natural protein)
fold reduction of normalised abundance against PfCoronin^WT-smHA: 3 fold
